Measurements as given in patent publication US20130064825A1 (Amgen, published 2013).

B1: 21B12, anti-PCSK9 huIgG4 (antibody, V domains shown)
VH: QVQLVQSGAEVKKPGASVKVSCKASGYTLTSYGISWVRQAPGQGLEWMGWVSFYNGNTNYAQKLQGRGTMTTDPSTSTAYMELRSLRSDDTAVYYCARGYGMDVWGQGTTVTVSS
VL: QSALTQPASVSGSPGQSITISCTGTSSDVGGYNSVSWYQQHPGKAPKLMIYEVSNRPSGVSNRFSGSKSGNTASLTISGLQAEDEADYYCNSYTSTSMVFGGGTKLTVLQ
notes: also called 21B12.1; 21B12 IgG4
B2: 11F1, anti-PCSK9 antibody (antibody, V domains shown)
VH: EVQLVESGGGLVQPGGSLRLSCAASGFTFSNYWMSWVRQAPGKGLEWVASIKQDGSEKYYVDSVKGRFAISRDNAKNSLFLQMNSLRAEDTAVYYCARDLVLMVYDIDYYYYGMDVWGQGTTVTVSS
VL: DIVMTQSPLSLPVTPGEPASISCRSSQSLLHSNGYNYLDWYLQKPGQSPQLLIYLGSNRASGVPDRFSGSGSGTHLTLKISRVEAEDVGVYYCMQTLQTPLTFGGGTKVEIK
notes: it was detected with anti-human Fc
B3: 16F12, anti-PCSK9 huIgG4 (antibody, V domains shown)
VH: QVHLVESGGGVVQPGRSLRLSCAASGFTFNSFGMHWVRQAPGKGLEWVALIWSDGSDEYYADSVKGRFTISRDNSKNTLYLQMNSLRAEDTAVYYCARAIAALYYYYGMDVWGQGTTVTVSS
VL: QSVLTQPPSVSAAPGQKVTISCSGSSSNIGNNFVSWYQQLPGTAPKLLIYDYNKRPSGIPDRFSGSKSGTSATLGITGLQTGDEADYYCGTWDSSLSAYVFGTGTRVTVLQ
notes: also called 16F12.1
B4: mouse PCSK9, 8xHIS tagged (enzyme, UniProt Q80W65 35-694, looked up)
chain: QDEDGDYEELMLALPSQEDGLADEAAHVATATFRRCSKEAWRLPGTYIVVLMEETQRLQIEQTAHRLQTRAARRGYVIKVLHIFYDLFPGFLVKMSSDLLGLALKLPHVEYIEEDSFVFAQSIPWNLERIIPAWHQTEEDRSPDGSSQVEVYLLDTSIQGAHREIEGRVTITDFNSVPEEDGTRFHRQASKCDSHGTHLAGVVSGRDAGVAKGTSLHSLRVLNCQGKGTVSGTLIGLEFIRKSQLIQPSGPLVVLLPLAGGYSRILNAACRHLARTGVVLVAAAGNFRDDACLYSPASAPEVITVGATNAQDQPVTLGTLGTNFGRCVDLFAPGKDIIGASSDCSTCFMSQSGTSQAAAHVAGIVARMLSREPTLTLAELRQRLIHFSTKDVINMAWFPEDQQVLTPNLVATLPPSTHETGGQLLCRTVWSAHSGPTRTATATARCAPEEELLSCSSFSRSGRRRGDWIEAIGGQQVCKALNAFGGEGVYAVARCCLVPRANCSIHNTPAARAGLETHVHCHQKDHVLTGCSFHWEVEDLSVRRQPALRSRRQPGQCVGHQAASVYASCCHAPGLECKIKEHGISGPSEQVTVACEAGWTLTGCNVLPGASLTLGAYSVDNLCVARVHDTARADRTSGEATVAAAICCRSRPSAKASWVQ
notes: also called mPCSK9-8xHIS; mPCSK9; not shown: 8xHIS tag

How the values were obtained:
[1] = target: B4; assay: SPR (Biacore 2000), antibody amine-coupled on CM5 chip, PCSK9 injected, pH 7.4; BIAcore (Table 7.1), not the assay of Table 8.2
[2] = target: B4; assay: Biacore solution equilibrium assay: PCSK9 mixed with 21B12.1, free PCSK9 read on immobilised 21B12
[3] = target: T1, human PCSK9 (proprotein convertase subtilisin/kexin type 9), wild type (human, UniProt Q8NBP7 31-692); assay: competition ELISA: biotinylated WT PCSK9 (100 ng/mL) pre-incubated with 11F1, binding to captured LDLR; average of 3
T1 construct: also called hPCSK9; WT PCSK9

[4] = target: furin (R&D Systems) (UniProt P09958 108-715, limits assumed); assay: competition ELISA: 0.4 ug/mL 11F1 pre-incubated with soluble proprotein convertase (furin inhibitor present), then added to plate-captured biotinylated PCSK9; OD450
[5] = target: T1, human PCSK9 (proprotein convertase …); assay: competition ELISA: biotinylated WT PCSK9 (100 ng/mL) pre-incubated with 11F1, binding to captured LDLR
[6] = target: T1, human PCSK9 (proprotein convertase …); assay: blocking ELISA: biotinylated WT PCSK9 (100 ng/mL) pre-incubated with 11F1, added to plate-captured LDLR; blocked ligand LDLR; streptavidin-HRP, OD450
[7] = target: T2, human PCSK9 D374Y mutant (human, UniProt Q8NBP7 31-692, biotinylated (sites not given) in the ELISA formats); assay: competition ELISA: biotinylated D374Y PCSK9 (20 ng/mL) pre-incubated with 11F1, binding to captured LDLR; average of 3
T2 construct: also called D374Y PCSK9; huPCSK9 (D374Y)

[8] = target: T2, human PCSK9 D374Y mutant; assay: competition ELISA: biotinylated D374Y PCSK9 (20 ng/mL) pre-incubated with 11F1, binding to captured LDLR
[9] = target: T2, human PCSK9 D374Y mutant; assay: blocking ELISA: biotinylated D374Y PCSK9 (20 ng/mL) pre-incubated with 11F1, added to plate-captured LDLR; blocked ligand LDLR; streptavidin-HRP, OD450
[10] = target: T1, human PCSK9 (proprotein convertase …); assay: cell-based or functional assay
[11] = target: T2, human PCSK9 D374Y mutant; assay: cell-based or functional assay
[12] = target: B4; assay: KinExA solution equilibrium titration; title: 100pM 16F12 + (1pM ~ 10nM) mPCSK9
[13] = target: B4; assay: SPR (Biacore 2000), antibody amine-coupled on CM5 chip, PCSK9 injected, pH 7.4
[14] = target: T3, 31H4, anti-PCSK9 huIgG4; assay: KinExA; mPCSK9 is varied, 31H4 is fixed at 100 pM; free 31H4.1 measured
T3 construct: also called 31H4.1; 31H4 IgG4

[15] = target: B3; assay: KinExA; mPCSK9 is varied, 16F12 is fixed at 100 pM; free 16F12 measured

T3 sequence (VL, as listed by the source, chain 2 of 2, other chains not shown): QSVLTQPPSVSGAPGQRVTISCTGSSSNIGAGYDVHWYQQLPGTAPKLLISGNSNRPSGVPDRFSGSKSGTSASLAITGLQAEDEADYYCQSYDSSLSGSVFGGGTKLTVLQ
Sequence of furin (R&D Systems) (P09958 108-715 limits assumed): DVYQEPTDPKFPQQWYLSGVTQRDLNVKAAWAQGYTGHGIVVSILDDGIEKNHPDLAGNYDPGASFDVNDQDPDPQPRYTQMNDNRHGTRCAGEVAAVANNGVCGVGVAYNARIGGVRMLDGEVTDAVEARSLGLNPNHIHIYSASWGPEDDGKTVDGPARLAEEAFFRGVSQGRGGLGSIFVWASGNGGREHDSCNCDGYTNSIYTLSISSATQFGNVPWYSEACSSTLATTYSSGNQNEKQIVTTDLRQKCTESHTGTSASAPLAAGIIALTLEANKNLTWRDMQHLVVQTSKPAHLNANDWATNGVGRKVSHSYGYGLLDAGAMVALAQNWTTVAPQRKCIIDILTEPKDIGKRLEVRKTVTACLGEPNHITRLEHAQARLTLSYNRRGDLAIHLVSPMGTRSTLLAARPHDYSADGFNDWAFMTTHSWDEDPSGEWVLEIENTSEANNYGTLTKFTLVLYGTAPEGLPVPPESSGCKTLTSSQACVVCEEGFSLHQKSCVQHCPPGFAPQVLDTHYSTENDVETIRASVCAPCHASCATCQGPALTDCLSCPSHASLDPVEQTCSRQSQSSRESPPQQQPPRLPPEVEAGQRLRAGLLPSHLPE

Binder: B1
Kd [1]: 460 nM
Kd [2]: 17 nM

Binder: B2
IC50 [3]: 5.9 nM
binding result [4]: no binding (tested: 20 ug/ml)
IC50 [5]: 4.4 to 8.1 nM
IC50 (read off the curve) [6]: ~5 nM
IC50 [7]: 9.1 nM
IC50 [8]: 7.3 to 10.1 nM
IC50 (read off the curve) [9]: ~10 nM
EC50, LDL uptake in HepG2 cells (BODIPY-LDL) [10]: 124 nM
EC50, LDL uptake in HepG2 cells (BODIPY-LDL) [11]: 35.3 nM

Binder: B3
Kd [12]: 0.223 nM
Kd [13]: 6.4 nM

Binder: B4
IC50 (read off the curve) [14]: ~0.6 nM
IC50 (read off the curve) [15]: ~0.4 nM
